Test [1] deals with T1, Recombinant Human IL-23 (human, UniProt Q9NPF7;P29460).
T1 construct: IL-23p19 subunit of human IL-23; IL-12p40 subunit, shared with IL-12; Heterodimer of p19 and p40; also called interleukin-23; source: bought: Sino Biologicals
In words: SPR; Biacore; anti-p40 monoclonal antibody coupled to a CM5 chip and loaded with recombinant human IL-23 at 2 or 0.5 ug/mL; V900 at 0.02, 0.08, 0.3, 1.25 and 5 nM, 300 s on and 300 s off, 30 uL/min. To be noted: both partners purified.

Test [2] addresses T1, Recombinant Human IL-23. Nature of the test: ELISA; human IL-23/IL-23R receptor/ligand inhibition ELISA; block buffer 1% BSA in PBS pH 7.4 with 4% Marvel milk; 0.1 mM PMSF added for trypsin-treated V56B2; protocol in the Supplementary Methods. The settings on record: both partners purified. In general terms: An ELISA detects its analyte on a solid surface through an enzyme-linked reagent.

In test [3] the target is T2, Recombinant cynomolgus monkey IL-23 (cynomolgus monkey).
T2 construct: IL-23p19 subunit of cynomolgus monkey IL-23; IL-12p40 subunit of cynomolgus monkey IL-23; also called cIL-23; IL-23 from cynomolgus monkey; source: bought: Fusion Antibodies (custom preparation)
T2 chain 1: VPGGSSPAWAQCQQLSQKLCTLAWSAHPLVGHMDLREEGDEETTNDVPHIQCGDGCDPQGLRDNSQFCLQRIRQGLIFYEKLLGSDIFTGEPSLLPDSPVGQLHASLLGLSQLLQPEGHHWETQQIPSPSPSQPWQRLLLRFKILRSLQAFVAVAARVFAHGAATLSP
T2 chain 2: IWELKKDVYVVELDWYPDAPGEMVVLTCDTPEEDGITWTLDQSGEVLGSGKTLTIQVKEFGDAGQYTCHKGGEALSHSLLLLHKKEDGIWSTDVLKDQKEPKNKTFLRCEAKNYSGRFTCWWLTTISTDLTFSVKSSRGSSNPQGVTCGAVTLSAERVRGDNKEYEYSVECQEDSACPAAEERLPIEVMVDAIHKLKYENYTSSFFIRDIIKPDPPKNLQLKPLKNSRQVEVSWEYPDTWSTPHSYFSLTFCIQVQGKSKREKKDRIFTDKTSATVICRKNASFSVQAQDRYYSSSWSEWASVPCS
In words: ELISA; cynomolgus monkey IL-23/IL-23R receptor/ligand inhibition ELISA; protocol in the Supplementary Methods. The settings on record: both partners purified.

Test [4] has as its target T1, Recombinant Human IL-23. Nature of the test: cell-based or functional assay.
The target in test [5] is T3, Recombinant Human IL-23 (human, UniProt Q9NPF7 20-189; P29460 23-328).
T3 construct: IL-23p19 subunit of human IL-23; IL-12p40 subunit, shared with IL-12; Heterodimer of p19 and p40; also called interleukin-23; source: bought: Sino Biologicals
T3 sequence (looked up) 1: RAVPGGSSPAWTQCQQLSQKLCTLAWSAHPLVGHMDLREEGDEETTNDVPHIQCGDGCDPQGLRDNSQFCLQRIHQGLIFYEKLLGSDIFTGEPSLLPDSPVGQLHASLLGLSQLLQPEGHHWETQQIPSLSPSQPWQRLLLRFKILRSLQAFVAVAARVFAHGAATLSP
T3 sequence (looked up) 2: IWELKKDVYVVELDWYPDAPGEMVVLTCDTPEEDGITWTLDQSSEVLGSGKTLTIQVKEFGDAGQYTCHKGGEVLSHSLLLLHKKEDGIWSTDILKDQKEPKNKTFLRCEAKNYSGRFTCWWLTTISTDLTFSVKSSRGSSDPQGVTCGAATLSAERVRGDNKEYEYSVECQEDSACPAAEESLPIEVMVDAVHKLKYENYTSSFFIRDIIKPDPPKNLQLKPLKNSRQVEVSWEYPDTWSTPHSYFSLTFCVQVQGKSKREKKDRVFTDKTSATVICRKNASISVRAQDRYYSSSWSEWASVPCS
In words: ELISA; human IL-23/IL-23R receptor/ligand inhibition ELISA; block buffer 1% BSA in PBS pH 7.4 with 4% Marvel milk; 0.1 mM PMSF added for trypsin-treated V56B2; protocol in the Supplementary Methods. To be noted: both partners purified.

One may read the Kd as the free concentration of one partner at which half of the binding sites on the other are occupied at equilibrium, for simple one-to-one binding. What is called IC50 is the concentration that inhibits the measured activity by half.

B1: Vorabody V900, anti-IL-23 p19-specific single domain antibody (VHH)
VHH: DVQLVESGGGQVQPGGSLSLSCESSVSIWSFKVMGWFRQVPGKQRELVATITTGGSPDYSDSVKGRFTISRDYDKRTLYLQMNSLKPEDTAVYYCAGRLWAHITSSGHDVWGQGTQVTVSS
notes: 121 amino acids, 13.2 kDa; also called anti-IL-23 (V900); source: S. cerevisiae or Pichia pastoris shake flask cultures, purified (CaptoS ion exchange chromatography)
In the case of B1, the Kd in the test with Recombinant Human IL-23 [1] came out at 0.032 nM. The IC50 in the test with Recombinant Human IL-23 [2] turned out to be 0.2 nM; in test [3] it was 0.7 nM. Besides, the “IC50 of inhibition of IL-17 production from murine splenocytes co-stimulated with murine IL-2 and human IL-23 (cellular potency in mouse splenocytes)” value with Recombinant Human IL-23 [4] amounted to 10.7 nM.

B2: Recombinant Human IL-23R-FC (Fc fusion, UniProt Q5VWK5 24-355, looked up)
chain: GITNINCSGHIWVEPATIFKMGMNISIYCQAAIKNCQPRKLHFYKNGIKERFQITRINKTTARLWYKNFLEPHASMYCTAECPKHFQETLICGKDISSGYPPDIPDEVTCVIYEYSGNMTCTWNAGKLTYIDTKYVVHVKSLETEEEQQYLTSSYINISTDSLQGGKKYLVWVQAANALGMEESKQLQIHLDDIVIPSAAVISRAETINATVPKTIIYWDSQTTIEKVSCEMRYKATTNQTWNVKEFDTNFTYVQQSEFYLEPNIKYVFQVRCQETGKRYWQPWSSLFFHKTPETVPQVTSKAFQHDTWNSGLTVASISTGHLTSDNRGDIG
notes: source: bought: R&D systems
In the case of B2, the binding result in the test with Recombinant Human IL-23 [5] is given as “binds”.

B3: single domain antibody 12G1, unoptimised anti-IL-23 domain antibody (VHH)
VHH: EVQLVESGGGLVQPGGSLRLSCAASVSIWSFKVMGWYRQVPGKQRELVATITTGGSPDYADSVKGRFTMSRDYDKRTVFLEMDSVKPEDAAVYYCNGRLWAHLTSSGHDVWGQGTRVTVSS
notes: llama-derived, isolated by phage display after immunisation with human IL-23; Parent of V900; also called clone 12G1; not shown: His6, C-terminal, kept; FLAG, C-terminal, kept
As to B3, in the test with Recombinant Human IL-23 [2], the IC50 was 0.2 nM. For the same molecule, the “IC50 of inhibition of IL-17 production from murine splenocytes co-stimulated with murine IL-2 and human IL-23 (cellular potency in mouse splenocytes)” value with Recombinant Human IL-23 [4] worked out at 9.3 nM.
